Where two headings read alike, the source gives them in different places.

The values below come from US11306156.

In test [1] the target is D3H44 Fab heavy chain L124E_L143D_K145T (H1 of LCCA sets 9214, 9217, 9216, 9219, 9220, 9225, 9228, 9229).
The target of test [2] is D3H44 Fab heavy chain L124E_L143E_K145M (H1 of LCCA sets 9269, 9266, 9267, 9260, 9262, 9263).
Test [3] shares this target. Briefly: LCCA: H1 co-expressed with L1 and L2 (DNA 333:250:749 ng), His-tag capture on SPR chip, light chain tags detected with anti-HA/anti-FLAG; competitor L2 V133G_S176D_T178D_T180E.
In test [4] the target is D3H44 Fab heavy chain L124E_L143D_K145T (H1 of LCCA sets 9214, 9217, 9216, 9219, 9220, 9225, 9228, 9229). This is another data set of the same source.
Test [5] shares this target. Briefly: LCCA: H1 co-expressed with L1 and L2 (DNA 333:250:749 ng), His-tag capture on SPR chip, light chain tags detected with anti-HA/anti-FLAG; competitor L2 Q124E_V133G_S176D_T178E_T180E.
The target of test [6] is D3H44 Fab heavy chain L124E_L143E_K145M (H1 of LCCA sets 9269, 9266, 9267, 9260, 9262, 9263). The test is described as above.
Test [7] addresses tissue factor (TF) antigen (UniProt P13726). Briefly: SPR, His-captured Fab, TF as analyte, 1:1 fit; estimated (*) from a Fab differing only in L chain tag.
The target is the same in test [8]. Briefly: SPR, His-captured Fab, TF as analyte; against wild-type D3H44 Fab; KD of this row is an estimated (*) value.
The target in test [9] is D3H44 Fab heavy chain L124R_D146N_Q179K. Nature of the test: LCCA, SPR of light chain tags; L1:L2 DNA 1:3 normalized to 1:1; competitor m8.
The target in test [10] is D3H44 Fab heavy chain L124R_Q179K. The test is described as above.
Test [11] has as its target D3H44 Fab heavy chain L124E_K145T_Q179E. Described as above.
Test [12] addresses D3H44 Fab heavy chain L124E_K145M_Q179E. The description is as above.
In test [13] the target is D3H44 Fab heavy chain L124R_D146N_Q179K. Nature of the test: LCCA, SPR of light chain tags; L1:L2 DNA 1:3 normalized to 1:1; competitor m9.
The target in test [14] is D3H44 Fab heavy chain L124E_K145T_Q179E. Described as above.
The target in test [15] is D3H44 Fab heavy chain L124E_L143E_K145T. Briefly: LCCA, SPR of light chain tags; L1:L2 DNA 1:3 normalized to 1:1; competitor m10.
Test [16] addresses D3H44 Fab heavy chain L124R_S186K. The test is described as above.
For test [17], the target named is D3H44 Fab heavy chain L124R_D146N_Q179K (H1 of LCCA sets 9358, 9359, 9357, 9351, 9352, 9353, 9354, 9350). Briefly: LCCA: H1 co-expressed with L1 and L2 (DNA 333:250:749 ng), His-tag capture on SPR chip, light chain tags detected with anti-HA/anti-FLAG; competitor L2 Q124K_V133G_Q160K_S176R.
The target in test [18] is D3H44 Fab heavy chain L124R_S186R. Nature of the test: LCCA, SPR of light chain tags; L1:L2 DNA 1:3 normalized to 1:1; competitor m8.
For test [19] the target is unchanged. Nature of the test: LCCA, SPR of light chain tags; L1:L2 DNA 1:3 normalized to 1:1; competitor m9.
Test [20] deals with D3H44 Fab heavy chain L124E_L143D_K145T (H1 of LCCA sets 9214, 9217, 9216, 9219, 9220, 9225, 9228, 9229). Briefly: LCCA: H1 co-expressed with L1 and L2 (DNA 333:250:749 ng), His-tag capture on SPR chip, light chain tags detected with anti-HA/anti-FLAG; competitor L1 Q124K_V133G_S176R_T178K.
The target of test [21] is D3H44 Fab heavy chain L124E_L143E_K145M (H1 of LCCA sets 9269, 9266, 9267, 9260, 9262, 9263). The test is described as above.
The target is the same in test [22]. Nature of the test: LCCA: H1 co-expressed with L1 and L2 (DNA 333:250:749 ng), His-tag capture on SPR chip, light chain tags detected with anti-HA/anti-FLAG; competitor L1 Q124K_V133G_S176R_T178R.
Test [23] addresses D3H44 Fab heavy chain L124R_D146N_Q179K (H1 of LCCA sets 9358, 9359, 9357, 9351, 9352, 9353, 9354, 9350). Briefly: LCCA: H1 co-expressed with L1 and L2 (DNA 333:250:749 ng), His-tag capture on SPR chip, light chain tags detected with anti-HA/anti-FLAG; competitor L1 V133G_S176D_T178E_T180E.
Test [24] shares this target. Briefly: LCCA: H1 co-expressed with L1 and L2 (DNA 333:250:749 ng), His-tag capture on SPR chip, light chain tags detected with anti-HA/anti-FLAG; competitor L1 Q124E_V133G_S176D_T178E_T180E.
The target of test [25] is D3H44 Fab heavy chain L124R_S186R (H1 of LCCA sets 9516 and 9515).
In test [26] the target is D3H44 Fab heavy chain L124R_S186K. Briefly: LCCA, SPR of light chain tags; L1:L2 DNA 1:3 normalized to 1:1; competitor m8.
For test [27], the target named is D3H44 Fab heavy chain L124R_S186R (H1 of LCCA sets 9516 and 9515). The source holds these as a separate data set.

Regarding “D3H44 light chain Q124K_V133G_S176R_T178R”, the median LCCA performance normalized to a L1:L2 DNA ratio of 1:1 (ratio H1-L1:H1-L2), H1-L1 share (ratio part of 100) in test [1] came out at 76; in test [2], 87; in test [3], 62; in test [4] it was 87; in [5], 83; in test [6], 84.
“D3H44 Fab heterodimer H1L1 of LCCA Set # 9104 (H1 L124E; L1 S131T_V133G_S176R_T178Y)”: in test [7], the Kd (usually the free concentration of one partner at which half of the binding sites on the other are occupied at equilibrium, for simple one-to-one binding) is 0.16 nM. Further, in [8], the Change in median values of KD compared to wild type (-(log(KD design)-log(KD wt))) is -0.01 log.
“D3H44 light chain V133G_S176D_T178E_T180E”: the H2L2:H2L1 normalized median ratio (% of heavy chain paired) in test [9] is 83; in test [10], 93; in test [13], 80; in [16], 92. Also, the H1L1:H1L2 normalized median ratio (% of heavy chain paired) in test [11] stood at 5; in [12] it was 8; in test [14] it was 3; in [15] it was 5. For the same substance, in test [17], the median LCCA performance normalized to a L1:L2 DNA ratio of 1:1 (ratio H1-L1:H1-L2), H1-L1 share (ratio part of 100) came to 74.
On to “D3H44 light chain V133G_S176D_T178D_T180E”, for which the H2L2:H2L1 normalized median ratio (% of heavy chain paired) amounted to 88 in [18] and 85 in test [19]. The H1L1:H1L2 normalized median ratio (% of heavy chain paired) in [11] is 5; in test [12] it was 6; in test [14] it was 4. The median LCCA performance normalized to a L1:L2 DNA ratio of 1:1 (ratio H1-L1:H1-L2), H1-L2 share (ratio part of 100) was determined as 18 in test [20], 37 in test [21] and 38 in test [22].
With “D3H44 light chain Q124K_V133G_Q160K_S176R”, the median LCCA performance normalized to a L1:L2 DNA ratio of 1:1 (ratio H1-L1:H1-L2), H1-L2 share (ratio part of 100) came out at 26 in [23] and 18 in test [24].
Take “D3H44 light chain Q124E_V133G_S176D_T178D_T180E”: the median LCCA performance normalized to a L1:L2 DNA ratio of 1:1 (ratio H1-L1:H1-L2), H1-L1 share (ratio part of 100) in test [25] stood at 95; in test [27] it was 94. Moreover, the H2L2:H2L1 normalized median ratio (% of heavy chain paired) in [18] and in test [26] was 92 in each case. In test [12], the H1L1:H1L2 normalized median ratio (% of heavy chain paired) was 8. Also, the median LCCA performance normalized to a L1:L2 DNA ratio of 1:1 (ratio H1-L1:H1-L2), H1-L2 share (ratio part of 100) in [20] came out at 15.
